T1: mouse KLB (mouse, UniProt Q99N32 53-990)
T1 construct: KLB cDNA in pRK vector, transiently expressed on HEK293T cells for FACS
T1 sequence: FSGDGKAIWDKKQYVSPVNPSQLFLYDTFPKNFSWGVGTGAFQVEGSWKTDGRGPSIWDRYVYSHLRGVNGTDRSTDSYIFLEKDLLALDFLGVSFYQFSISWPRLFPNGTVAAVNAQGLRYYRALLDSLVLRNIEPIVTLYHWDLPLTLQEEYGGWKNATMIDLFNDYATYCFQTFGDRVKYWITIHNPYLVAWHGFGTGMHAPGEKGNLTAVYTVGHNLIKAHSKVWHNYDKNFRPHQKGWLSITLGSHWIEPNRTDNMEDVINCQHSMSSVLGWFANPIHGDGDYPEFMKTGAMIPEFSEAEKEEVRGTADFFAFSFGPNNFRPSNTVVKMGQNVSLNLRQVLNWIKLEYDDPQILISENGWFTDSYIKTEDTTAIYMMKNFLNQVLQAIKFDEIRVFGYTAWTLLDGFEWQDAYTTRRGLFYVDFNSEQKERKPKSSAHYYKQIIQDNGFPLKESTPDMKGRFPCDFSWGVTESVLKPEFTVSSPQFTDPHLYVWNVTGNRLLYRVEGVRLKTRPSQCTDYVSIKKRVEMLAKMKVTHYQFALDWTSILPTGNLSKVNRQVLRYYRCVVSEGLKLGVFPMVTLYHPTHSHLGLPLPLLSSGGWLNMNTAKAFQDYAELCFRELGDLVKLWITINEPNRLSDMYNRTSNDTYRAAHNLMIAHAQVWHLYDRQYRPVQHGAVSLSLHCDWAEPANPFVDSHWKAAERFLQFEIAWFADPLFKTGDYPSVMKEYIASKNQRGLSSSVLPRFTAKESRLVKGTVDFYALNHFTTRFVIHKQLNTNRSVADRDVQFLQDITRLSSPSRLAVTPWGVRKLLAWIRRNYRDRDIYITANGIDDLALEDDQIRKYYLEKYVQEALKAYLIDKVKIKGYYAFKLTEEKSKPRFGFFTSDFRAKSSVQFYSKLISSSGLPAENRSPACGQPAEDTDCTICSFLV


Legend:
mouse KLB = molecular target: T1, mouse KLB; assay: radiolabeled ligand cell binding assay on stable HEK293 cells, iodinated against unlabeled protein
[1] = molecular target: T2, human KLB/human FGFR1c complex on HEK293 cells (human, UniProt Q86Z14 53-1044; P11362 22-822); assay: as above
T2 construct: both receptors coexpressed on the same cells; Also used for L6 and COS7 cells transfected with both receptors (COS7: SNAP-tagged FGFR1c); also called FGFR1c/KLB complex

human KLB on cells = molecular target: T3, human KLB on cells (human, UniProt Q86Z14 53-1044); assay: as above
T3 construct: also called hKLB; beta-Klotho

human FGFR1c on cells [2] = molecular target: T4, human FGFR1c on cells (human, UniProt P11362 22-822); assay: as above
T4 construct: HEK293 cells expressing FGFR1c without KLB; also called hFGFR1c

human FGFR1c on cells [3] = molecular target: T4, human FGFR1c on cells; assay: radiolabel ligand assay on cells expressing only FGFR1c; could not be determined reliably
[4] = molecular target: T2, human KLB/human FGFR1c complex on …; assay: cell-based or functional assay

T4 sequence (P11362 other isoform, or with tags, fused parts or gaps limits assumed): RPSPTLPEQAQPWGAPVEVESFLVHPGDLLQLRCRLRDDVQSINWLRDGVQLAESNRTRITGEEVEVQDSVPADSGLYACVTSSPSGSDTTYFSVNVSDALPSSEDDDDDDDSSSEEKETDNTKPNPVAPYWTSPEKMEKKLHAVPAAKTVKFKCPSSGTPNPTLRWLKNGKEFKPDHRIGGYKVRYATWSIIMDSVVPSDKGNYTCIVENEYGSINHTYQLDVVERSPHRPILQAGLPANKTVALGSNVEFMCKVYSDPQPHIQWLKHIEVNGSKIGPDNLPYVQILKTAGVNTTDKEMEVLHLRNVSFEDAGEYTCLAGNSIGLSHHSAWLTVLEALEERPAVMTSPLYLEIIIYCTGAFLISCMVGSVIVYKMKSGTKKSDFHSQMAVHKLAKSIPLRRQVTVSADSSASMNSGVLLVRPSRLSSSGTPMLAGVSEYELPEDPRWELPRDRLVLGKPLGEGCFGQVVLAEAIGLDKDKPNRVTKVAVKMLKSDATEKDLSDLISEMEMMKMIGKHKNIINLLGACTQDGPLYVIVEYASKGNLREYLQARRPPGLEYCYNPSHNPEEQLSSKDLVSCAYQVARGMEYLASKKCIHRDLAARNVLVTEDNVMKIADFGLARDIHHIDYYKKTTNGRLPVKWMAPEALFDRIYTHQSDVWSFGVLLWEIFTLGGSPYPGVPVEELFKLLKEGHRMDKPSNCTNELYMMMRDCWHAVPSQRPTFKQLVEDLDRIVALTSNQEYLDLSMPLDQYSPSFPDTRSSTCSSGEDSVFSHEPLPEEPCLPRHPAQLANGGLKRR

Binder	Kd (mouse KLB) [nM]	Kd [1] [nM]	Kd (human KLB on cells) [nM]	Kd (human FGFR1c on cells [2]) [nM]	Kd (human FGFR1c on cells [3]) [nM]	EC50 in GAL-ELK1 assay in HEK293 cells [4] [nM]
BsAb10 (bispecific antibody) chain 1: EVQLVESGGGLVQPGGSLRLSCAASGFTFTSNWISWVRQAPGKGLEWVAEIDPYDGATDYADSVKGRFTISADTSKNTAYLQMNSLRAEDTAVYYCATGTDVMDYWGQGTLVTVSS chain 2: DIQMTQSPSSLSASVGDRVTITCRASQDVSTAVAWYQQKPGKAPKLLIYSASFLYSGVPSRFSGSGSGTDFTLTISSLQPEDFATYYCQQSYTTPPTFGQGTKVEIK chain 3: QVQLKQSGPGLVQPSQSLSVACTVSDFSLTTYGVHWVRQSPGKGLEWLGVIWSGGSTDYNAAFISRLTISKDNSKSQVFFKMNSLQTTDTAIYYCARDYGSTYVDAIDYWGQGTSVTVSS chain 4: DIVLTQSPTSLAVSLGQRATISCRASESVESYGNRYMTWYQQKPGQPPKLLIYRAANLQSGIPARFSGSGSRTDFTLTIDPVEADDVATYYCQQSNEDPWTFGGGTKVEIK	15.5	2.3	6.6	300	> 300	3.2
BsAb9 (bispecific antibody) chain 1: EVQLVESGGGLVQPGGSLRLSCAASGFTFTSNWISWVRQAPGKGLEWVAEIDPYDGATDYADSVKGRFTISADTSKNTAYLQMNSLRAEDTAVYYCATGTDVMDYWGQGTLVTVSS chain 2: DIQMTQSPSSLSASVGDRVTITCRASQDVSTAVAWYQQKPGKAPKLLIYSASFLYSGVPSRFSGSGSGTDFTLTISSLQPEDFATYYCQQSYTTPPTFGQGTKVEIK chain 3: EVKFLESGGGLVQPGGSLRLSCAVSGIDFSRYWMSWVRQAPGKGLEWIGEISPDSSTINYTPSLKDKFVISRDNAKNTLYLQMSKVRSADTALYYCARPSPALDYWGQGTLVTVSA chain 4: DIVMTQSPATLSVTPGDRVSLSCRASQSISDYVYWYQQKSHESPRLLIIYASQSISGIPSRFSGSGSGSDFTLSINSVEPEDVGVYYCQNGHNFPYTFGGGTKLEIK	–	2.2	9.8	300	–	–
